How the values were obtained:
[1] = target: T1, XIAP (Homo sapiens, UniProt P98170); assay: Cytochrome c-dependent caspase-3 activation in 293T S100 extracts containing XIAP (DEVD-AMC); assay type: biochemical; settings: 25, 100 and 500 μM peptide, XIAP 10 nM, cytochrome c and dATP
T1 construct: made in house; host or cells: in vitro translation (cell-free)
Method: The activity of caspase-3 in the S100 extracts was measured using the peptide substrate DEVD-AMC.

[2] = target: T1, XIAP; assay: Far Western blot analysis with 35S-labeled XIAP; assay type: binding; settings: for binding of XIAP by Far Western: proteins on nitrocellulose membrane, denatured and renatured; for ability to interact with BIR3 (Far western, FIG. 12B): recombinant caspase-9 mutants
[3] = target: T2, E314S mutant BIR3 domain of XIAP (Homo sapiens, UniProt P98170, E314S); assay: Interaction of GST fusion proteins with 35S-labeled E314S mutant BIR3; assay type: binding; settings: compared with WT BIR3
T2 construct: made in house
Excerpt: (§1) The C-terminal GST fusion proteins were expressed in bacteria and then immobilized onto glutathione-affinity resin. […] The caspase-9 deletion mutants used in these studies are represented by bar diagrams above the panel in FIG. 10.

[4] = target: T3, isolated BIR3 domain of XIAP, P98170
T3 chain: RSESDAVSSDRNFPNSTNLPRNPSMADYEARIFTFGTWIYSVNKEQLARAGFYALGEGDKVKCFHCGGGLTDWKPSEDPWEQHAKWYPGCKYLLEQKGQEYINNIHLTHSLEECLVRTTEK

[5] = target: T4, X-linked inhibitor of apoptosis protein (XIAP), full length (UniProt P98170 1-497); assay: gel filtration on Superose 6 and immunoblot of fractions
T4 construct: Used as in vitro translated 35S-labeled full length XIAP (pull-down, Far western) or as purified XIAP (holoenzyme experiments); also called full length XIAP; 35S-labeled XIAP

[6] = target: T5, isolated BIR3 domain of XIAP (Homo sapiens, UniProt P98170); assay: In vitro interaction assay of GST fusion proteins with 35S-labeled BIR3; assay type: binding; settings: for interaction with isolated BIR3 domain of XIAP: C-terminal GST fusion proteins immobilized onto glutathione-affinity resin
T5 construct: full length XIAP or the isolated BIR3 domain of XIAP; made in house; host or cells: in vitro translation (cell-free)
Excerpt: as §1

[7] = target: T6, full length XIAP (Homo sapiens, UniProt P98170); assay: In vitro interaction assay of GST fusion proteins with 35S-labeled XIAP; assay type: binding; settings: for interaction with full length XIAP: C-terminal GST fusion proteins immobilized onto glutathione-affinity resin
T6 construct: full length XIAP or the isolated BIR3 domain of XIAP; made in house; host or cells: in vitro translation (cell-free)
Excerpt: as §1

[8] = target: T7, isolated BIR3 domain of XIAP (UniProt P98170 238-358, limits assumed); assay: method not stated
T7 construct: domain: BIR3; In vitro translated 35S-labeled BIR3 in pull-downs; purified XIAP-BIR3 in enzyme assays; also called XIAP-BIR3; WT BIR3

[9] = target: T4, X-linked inhibitor of apoptosis protein …; assay: Far western with 35S-labeled XIAP
[10] = less than p12 and linker peptide

ATPFQ (listed as Homo sapiens) [p12-N5] was tested, and the “promoting caspase-3 activation in XIAP containing extracts” value [1] was “as effective in promoting caspase-3 activation as the Smac-N5 or N7 peptides”.

B1: Smac-GST: mature Smac/DIABLO GST-fusion protein (protein)
chain: AVPIAQKSEPHSLSSEALMRRAVSLVTDSTSTFLSQTTYALIEAITEYTKAVYTLTSLYRQYTSLLGKMNSEEEDEVWQVIIGARAEMTSKHQEYLKLETTWMTAVGLSEMAAEAAYQTGADQASITARNHIQLVKLQVEEVHQLSRKAETKLAEAQIEELRQKTQEEGEERAESEQEAYLRED
modifications: left off: a dimerising Fc or GST
notes: mature Smac/DIABLO GST-fusion protein
With B1 the “binding of XIAP by Far Western” value [2] was “able to bind” and the “binding to E314S mutant BIR3” value [3] was “abrogated binding”.

B2: caspase-9 linker deletion mutant (residues 316 to 330 of SEQ ID NO:1 deleted) (protein)
chain 1: MDEADRRLLRRCRLRLVEELQVDQLWDALLSRELFRPHMIEDIQRAGSGSRRDQARQLIIDLETRGSQALPLFISCLEDTGQDMLASFLRTNRQAAKLSKPTLENLTPVVLRPEIRKPEVLRPETPRPVDIGSGGFGDVGALESLRGNADLAYILSMEPCGHCLIINNVNFCRESGLRTRTGSNIDCEKLRRRFSSLHFMVEVKGDLTAKKMVLALLELAQQDHGALDCCVVVILSHGCQASHLQFPGAVYGTDGCPVSVEKIVNIFNGTSCPSLGGKPKLFFIQACGGEQKDHGFEVASTSPEDESPGSNPEPD
chain 2: AISSLPTPSDIFVSYSTFPGFVSWRDPKSGSWYVETLDDIFEQWAHSEDLQSLLLRVANAVSVKGIYKQMPGCFNFLRKKLFFKTS
B2 was tested, and the “DEVD-AMC cleaving activity in S100 extracts with or without XIAP-BIR3 (20 nM)” value [4] was “the deletion of the linker region did not inhibit enzymatic activity, even in the presence of XIAP-BIR3”.

B3: fully processed wild-type (WT) caspase-9 (enzyme)
chain 1: MDEADRRLLRRCRLRLVEELQVDQLWDALLSRELFRPHMIEDIQRAGSGSRRDQARQLIIDLETRGSQALPLFISCLEDTGQDMLASFLRTNRQAAKLSKPTLENLTPVVLRPEIRKPEVLRPETPRPVDIGSGGFGDVGALESLRGNADLAYILSMEPCGHCLIINNVNFCRESGLRTRTGSNIDCEKLRRRFSSLHFMVEVKGDLTAKKMVLALLELAQQDHGALDCCVVVILSHGCQASHLQFPGAVYGTDGCPVSVEKIVNIFNGTSCPSLGGKPKLFFIQACGGEQKDHGFEVASTSPEDESPGSNPEPD
chain 2: ATPFQEGLRTFDQLDAISSLPTPSDIFVSYSTFPGFVSWRDPKSGSWYVETLDDIFEQWAHSEDLQSLLLRVANAVSVKGIYKQMPGCFNFLRKKLFFKTS
notes: Procaspase-9 overexpressed in E. coli, completely processed into p35 and p12 (greater than 90% at Asp315, about 10% at Asp330 giving p10, minor at Glu306); also called wild type caspase-9; processed caspase-9; not shown: C-terminal 6-Histidine tag from pET-21c or pET-28a
B3: binds [5].

B4: p10-GST: C-terminal GST fusion protein of caspase-9 p10 (residues 331-416 of SEQ ID NO:1) (protein)
chain: AISSLPTPSDIFVSYSTFPGFVSWRDPKSGSWYVETLDDIFEQWAHSEDLQSLLLRVANAVSVKGIYKQMPGCFNFLRKKLFFKTS
modifications: left off: a dimerising Fc or GST
B4 was tested, and the “interaction with isolated BIR3 domain of XIAP” value [6] was “only weakly”, the “interaction with BIR3 domain, fold less” value [6, 10] was 50 to 100 fold and the “binding of XIAP by Far Western” value [2] was “not able to bind”. For the same molecule, the “interaction with full length XIAP” value [7] was “only weakly” and the “interaction with full length XIAP, fold less” value [7, 10] was 50 to 100 fold.

B5: chemically synthesized caspase-9 linker peptide (ATPFQEGLRTFDQLD) (peptide)
peptide: ATPFQEGLRTFDQLD
B5 was tested, and the Kd [8] was 550 nM.

B6: SGVD176-179AVPF: caspase-3 with first four residues of p12 substituted with AVPF (protein)
chain 1: SGISLDNSYKMDYPEMGLCIIINNKNFHKSTGMTSRSGTDVDAANLRETFRNLKYEVRNKNDLTREEIVELMRDVSKEDHSKRSSFVCVLLSHGEEGIIFGTNGPVDLKKITNFFRGDRCRSLTGKPKLFIIQACRGTELDCGIETD
chain 2: AVPFDDMACHKIPVEADFLYAYSTAPGYYSWRNSKDGSWFIQSLCAMLKQYADKLEFMHILTRVNRKVATEFESFSFDATFHAKKQIPCIVSMLTKELYFYH
For B6, the “binding of XIAP by Far Western” value [2] was “enhanced binding”.

B7: Smac-N7 peptide (AVPIAQK) (peptide)
peptide: AVPIAQK
With B7 the Kd [8] was about 810 nM.

B8: single mutant (D315A) caspase-9 (enzyme)
chain: MDEADRRLLRRCRLRLVEELQVDQLWDALLSRELFRPHMIEDIQRAGSGSRRDQARQLIIDLETRGSQALPLFISCLEDTGQDMLASFLRTNRQAAKLSKPTLENLTPVVLRPEIRKPEVLRPETPRPVDIGSGGFGDVGALESLRGNADLAYILSMEPCGHCLIINNVNFCRESGLRTRTGSNIDCEKLRRRFSSLHFMVEVKGDLTAKKMVLALLELAQQDHGALDCCVVVILSHGCQASHLQFPGAVYGTDGCPVSVEKIVNIFNGTSCPSLGGKPKLFFIQACGGEQKDHGFEVASTSPEDESPGSNPEPAATPFQEGLRTFDQLDAISSLPTPSDIFVSYSTFPGFVSWRDPKSGSWYVETLDDIFEQWAHSEDLQSLLLRVANAVSVKGIYKQMPGCFNFLRKKLFFKTS
notes: also called caspase-9 D315A
In the case of B8, the binding result [9] is reported as “no binding” and the “binding of XIAP by Far Western” value [2] is reported as “not able to bind”.

B9: SG: caspase-9 with first two p12 residues Ala-Thr mutated to Ser-Gly (protein, UniProt P55211 1-416, looked up, variant A316S T317G)
chain: MDEADRRLLRRCRLRLVEELQVDQLWDALLSRELFRPHMIEDIQRAGSGSRRDQARQLIIDLETRGSQALPLFISCLEDTGQDMLASFLRTNRQAAKLSKPTLENLTPVVLRPEIRKPEVLRPETPRPVDIGSGGFGDVGALESLRGNADLAYILSMEPCGHCLIINNVNFCRESGLRTRTGSNIDCEKLRRRFSSLHFMVEVKGDLTAKKMVLALLELAQQDHGALDCCVVVILSHGCQASHLQFPGAVYGTDGCPVSVEKIVNIFNGTSCPSLGGKPKLFFIQACGGEQKDHGFEVASTSPEDESPGSNPEPDSGPFQEGLRTFDQLDAISSLPTPSDIFVSYSTFPGFVSWRDPKSGSWYVETLDDIFEQWAHSEDLQSLLLRVANAVSVKGIYKQMPGCFNFLRKKLFFKTS
For B9, the “ability to interact with BIR3 (Far western, FIG. 12B)” value [2] was “lost significantly the ability to interact”.

B10: double mutant (D315/D330A) caspase-9 (enzyme)
chain: MDEADRRLLRRCRLRLVEELQVDQLWDALLSRELFRPHMIEDIQRAGSGSRRDQARQLIIDLETRGSQALPLFISCLEDTGQDMLASFLRTNRQAAKLSKPTLENLTPVVLRPEIRKPEVLRPETPRPVDIGSGGFGDVGALESLRGNADLAYILSMEPCGHCLIINNVNFCRESGLRTRTGSNIDCEKLRRRFSSLHFMVEVKGDLTAKKMVLALLELAQQDHGALDCCVVVILSHGCQASHLQFPGAVYGTDGCPVSVEKIVNIFNGTSCPSLGGKPKLFFIQACGGEQKDHGFEVASTSPEDESPGSNPEPAATPFQEGLRTFDQLAAISSLPTPSDIFVSYSTFPGFVSWRDPKSGSWYVETLDDIFEQWAHSEDLQSLLLRVANAVSVKGIYKQMPGCFNFLRKKLFFKTS
notes: also called caspase-9 D315/330A
With B10 the binding result [9] was “no binding” and the “binding of XIAP by Far Western” value [2] was “not able to bind”.

B11: GG: caspase-9 with first two p12 residues Ala-Thr mutated to Gly-Gly (protein, UniProt P55211 1-416, looked up, variant A316G T317G)
chain: MDEADRRLLRRCRLRLVEELQVDQLWDALLSRELFRPHMIEDIQRAGSGSRRDQARQLIIDLETRGSQALPLFISCLEDTGQDMLASFLRTNRQAAKLSKPTLENLTPVVLRPEIRKPEVLRPETPRPVDIGSGGFGDVGALESLRGNADLAYILSMEPCGHCLIINNVNFCRESGLRTRTGSNIDCEKLRRRFSSLHFMVEVKGDLTAKKMVLALLELAQQDHGALDCCVVVILSHGCQASHLQFPGAVYGTDGCPVSVEKIVNIFNGTSCPSLGGKPKLFFIQACGGEQKDHGFEVASTSPEDESPGSNPEPDGGPFQEGLRTFDQLDAISSLPTPSDIFVSYSTFPGFVSWRDPKSGSWYVETLDDIFEQWAHSEDLQSLLLRVANAVSVKGIYKQMPGCFNFLRKKLFFKTS
In the case of B11, the “ability to interact with BIR3 (Far western, FIG. 12B)” value [2] is reported as “lost significantly the ability to interact”.

B12: p12: C-terminal GST fusion protein of Caspase-9-p12 (residues 316-416 of SEQ ID NO:1) (protein)
chain: ATPFQEGLRTFDQLDAISSLPTPSDIFVSYSTFPGFVSWRDPKSGSWYVETLDDIFEQWAHSEDLQSLLLRVANAVSVKGIYKQMPGCFNFLRKKLFFKTS
modifications: left off: a dimerising Fc or GST
In the case of B12, the “interaction with isolated BIR3 domain of XIAP” value [6] is reported as “able to interact”, the “binding of XIAP by Far Western” value [2] is reported as “able to bind” and the “binding to E314S mutant BIR3” value [3] is reported as “abrogated binding”. The “interaction with full length XIAP” value [7] was “able to interact”.

Reference: patent US20020160975A1, “Conserved XIAP-interaction motif in caspase-9 and Smac/DIABLO for mediating apoptosis” (Thomas Jefferson University, priority 2001, published 2002)
